The target in this data set is TNF-alpha (mouse) (Mus musculus, UniProt P06804 80-235). In words: nitrocellulose filter binding with qPCR.
TNF-alpha (mouse), sequence (P06804 80-235): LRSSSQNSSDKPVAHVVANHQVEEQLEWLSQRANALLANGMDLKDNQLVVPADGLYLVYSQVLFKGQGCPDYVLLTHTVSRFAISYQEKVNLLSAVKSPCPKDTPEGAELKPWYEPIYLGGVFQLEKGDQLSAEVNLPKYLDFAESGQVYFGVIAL

Regarding GCGCCACTACAGGGGAGCTGCCATTCGAATAGGTGGGCCGC (ssDNA) [aptTNF-alpha], the binding result was “binds”.

The values above are taken from paper PMC6485186.
